Consider 5 molecules from US20240092897A1 (SHANGHAI JMT BIO TECHNOLOGY, published 2024).

Experiment [1] addresses T1, Human Siglec-15, His Tag (human Siglec-15 full-length extracellular domain linked with His tag) (human, UniProt Q6ZMC9 20-263).
T1 construct: Bought from ACROBiosystems; also called Siglec-15 protein; SG5-H52H3
T1 sequence: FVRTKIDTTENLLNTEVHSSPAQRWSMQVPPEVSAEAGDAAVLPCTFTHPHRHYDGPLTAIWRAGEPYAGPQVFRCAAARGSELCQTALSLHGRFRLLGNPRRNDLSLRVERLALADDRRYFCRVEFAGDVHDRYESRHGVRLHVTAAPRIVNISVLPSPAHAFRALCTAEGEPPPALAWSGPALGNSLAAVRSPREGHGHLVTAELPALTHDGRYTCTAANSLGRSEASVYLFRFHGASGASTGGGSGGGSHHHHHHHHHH
In words: ELISA, coated antigen. As for the experimental part: (§1) The variable regions from the antibodies produced by the hybridomas were combined with human IgG1 (N297A) constant regions to generate chimeric antibodies, named as 21F6C6, 75E1F2, 124B11F6, 174C11C9, and 255C12B10, respectively. Binding activity assays were performed on the chimeric antibodies using Siglec-15 proteins from different species, in which human, mouse and Cynomolgus Monkey Siglec-15 proteins were purchased from ACROBiosystems (Beijing, China). Antigen was coated at 0.5 μg/ml, and antibodies were diluted starting from 1 μg/ml and incubated with antigen. Horseradish peroxidase-labeled Anti-Human IgG antibody was used as the secondary antibody and OD₄₅₀ values were read after adding the substrate.

In experiment [2] the target is T2, Cynomolgus Monkey Siglec-15 full-length extracellular domain linked with His tag (Cynomolgus Monkey).
T2 construct: Bought from ACROBiosystems; also called SG5-052H6
T2 chain: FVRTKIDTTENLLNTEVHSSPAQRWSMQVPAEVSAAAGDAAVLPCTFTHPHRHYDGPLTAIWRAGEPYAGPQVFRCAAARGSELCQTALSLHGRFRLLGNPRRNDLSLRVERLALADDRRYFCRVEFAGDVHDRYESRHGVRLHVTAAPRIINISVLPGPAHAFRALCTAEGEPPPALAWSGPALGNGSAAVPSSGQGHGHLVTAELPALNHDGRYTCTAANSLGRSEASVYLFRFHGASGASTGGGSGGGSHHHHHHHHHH
As to the kind of experiment: ELISA, coated antigen. As for the experimental part: as §1
In general terms: An ELISA detects its analyte on a solid surface through an enzyme-linked reagent.

Experiment [3] has as its target T1, Human Siglec-15, His Tag (human …). As to the kind of experiment: Octet BLI epitope binning, Siglec-15 His on HIS1K sensor; competitor 21F6C6. As for the experimental part: (§2) Epitope binning assays were performed using the Octet RED96e (ForteBio) System for the antibodies tested. Human Siglec-15, His Tag (Cat. No. SG5-H52H3) (5 μg/mL) was captured by the HIS1K biosensor and bound to primary antibody (100 nM) for 180 s. Then, the Human Siglec-15, His Tag (antigen)-primary antibody was bound to secondary antibody (100 nM) on the biosensors for 90 s. Data analysis was performed using Octet RED96e (ForteBio) analysis software.
Background: In BLI a coated tip is dipped into the sample, and binding shifts an interference pattern.

For experiment [4] the target is unchanged. In words: SPR Biacore 8K, antibody captured by anti-human Fc, Siglec-15 His as analyte. As to the method:
Affinity analysis was performed using Biacore8K, and a CM5 chip immobilized with anti-human Fc antibody was used to capture the antibodies tested. The stock solutions of the antibodies to be tested were diluted to 5 μg/mL, and injected sequentially into the experimental channels at a flow rate of 10 μL/min at about 500 RU. The analyte was Human Siglec-15, His Tag (Cat. #SG5-H52H3), the diluted human Siglec-15 protein was injected sequentially into the experimental channels and the control channel at a flow rate of 30 μL/min and allowing for a binding time of 150 s and a dissociation time of 700 s. The KD value of each antibody was calculated using Biacore 8K analysis software.
(Surface plasmon resonance follows binding to a sensor surface in real time, without labels.)

For experiment [5] the target is unchanged. In words: Octet BLI epitope binning, Siglec-15 His on HIS1K sensor; competitor 124B11F6. As for the experimental part:
as §2

Experiment [6] has the same target. In words: Octet BLI epitope binning, Siglec-15 His on HIS1K sensor; competitor 174C11C9. As to the method: as §2
For experiment [7] the target is unchanged. In words: Octet BLI epitope binning, Siglec-15 His on HIS1K sensor; competitor 255C12B10. As to the method:
as §2

The target in experiment [8] is T3, Human Siglec-15 overexpressed on HEK293T cells (HEK293T-hu-S15) (human, UniProt Q6ZMC9 20-328).
T3 construct: whole, on cells; also called HEK293T-hu-S15 cell line
T3 sequence (looked up): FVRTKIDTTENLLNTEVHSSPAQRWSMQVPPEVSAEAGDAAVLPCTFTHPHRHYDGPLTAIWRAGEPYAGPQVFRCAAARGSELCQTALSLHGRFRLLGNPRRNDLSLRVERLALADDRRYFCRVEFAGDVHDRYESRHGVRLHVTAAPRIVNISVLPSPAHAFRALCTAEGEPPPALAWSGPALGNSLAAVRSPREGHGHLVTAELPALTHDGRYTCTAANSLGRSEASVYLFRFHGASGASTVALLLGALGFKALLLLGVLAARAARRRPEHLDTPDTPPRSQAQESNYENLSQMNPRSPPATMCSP
In words: flow cytometry on HEK293T-hu-S15 cells, detection with anti-human IgG (Fc specific)-FITC, average fluorescence intensity. As to the method: HEK293T cell line overexpressing Siglec-15 (HEK293T-hu-S15) was purchased from KYinno Biotechnology Co., Ltd (Beijing, China) under Catalog #KC-1314. Purified anti-Siglec-15 chimeric antibodies were diluted at a gradient of 100 nM and incubated with HEK293T-hu-S15 cells at 4° C. for 30 min. Flow cytometry was performed after addition of anti-human IgG (Fc specific)-FITC (cat. #F9512) and incubation for 30 min.

Experiment [9] concerns the target T1, Human Siglec-15, His Tag (human …). In words: Octet BLI epitope binning, Siglec-15 His on HIS1K sensor; competitor 75E1F2. As for the experimental part:
as §2

Experiment [10] shares this target. In words: SPR Biacore, antibody captured by anti-human Fc on CM5, Siglec-15 protein as analyte.
Experiment [11] deals with T4, Mouse Siglec-15 full-length extracellular domain linked with His tag (mouse).
T4 construct: Bought from ACROBiosystems; also called SG5-M52H7
T4 chain: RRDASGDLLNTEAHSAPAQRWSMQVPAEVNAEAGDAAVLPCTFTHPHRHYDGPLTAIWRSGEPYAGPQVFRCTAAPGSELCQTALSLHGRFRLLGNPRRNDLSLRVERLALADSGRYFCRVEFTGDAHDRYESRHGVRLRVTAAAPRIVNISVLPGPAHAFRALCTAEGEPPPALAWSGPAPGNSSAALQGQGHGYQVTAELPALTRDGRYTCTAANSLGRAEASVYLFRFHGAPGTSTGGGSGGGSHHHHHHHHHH
In words: ELISA, coated antigen. As for the experimental part:
as §1

B1: 75E1F2 chimeric antibody (antibody, V domains shown)
VH: EVQLVESGGGSVKPGGSLKLSCAASGFTFSDYGMHWVRQAPEKGLEWITYISSGSSIIDYSDTVKGRFTISRDNAKDTLFLQMTSLRSEDTAIYYCVRREDHYAMDYWGQGTSVTVSS
VL: DIVMTQSHKFLSTSVGDRVSITCKASQDVYTAVAWFQQKPGQSPKLLFYSASYRFTGVPDRFNGSGSGTDFTLTITSMQAEDLAVYYCQQHYSTPWTFGGGTKLEIK
notes: Mouse variable regions combined with human IgG1 (N297A) constant regions
Broadly, the EC50 is the concentration that produces a half-maximal response. Broadly, the Kd is the concentration at which binding is half-saturated. As usually defined, the koff is the rate constant with which the complex falls apart. A word on the kon: it is the second-order rate constant of association. As for B1, the EC50 in experiment [1] was determined as 18.6 ng/mL; in [2], 12.2 ng/mL; in experiment [8], 1.88 nM. Further, the cross-competition score in experiment [3] came to 23.3%; in experiment [5] it was 25.6%; in experiment [6], 23%; in experiment [7] it was 69.2%. The molecule further showed a Kd in experiment [4] of 0.93 nM. Also, the dissociation rate constant (koff) in experiment [4] turned out to be 0.000782 s⁻¹. For the same molecule, in [4], the kon came out at 841000 M⁻¹ s⁻¹.

B2: 21F6C6 chimeric antibody (antibody, human IgG1, V domains shown)
VH: EVMLVESGGGLVKPGGSLKLSCAASGFTFSSYAMSWVRQSPEKRLEWVATISSGGSLIYYPDSVTGRFTISRDNAKSTLYLQMSSLRSEDTAMYYCVRHGYYYGDSTLYYAMDYWGPGTSVTVSS
VL: DIVLTQSPASLAVSLGQRATISCKASQSVDYDGDSYMNWYQQKPGQPPKLLIYAASNLESGIPARFSGSGSGTDFTLNIHPVEEEDAATYYCQQSNEAPLTFGAGTKLELK
notes: also called 21F6C6-mHL
On to B2, for which the figures for the concentration for a half-maximal effect (EC50) in experiment [1], in experiment [2] and in experiment [8] were 4.81 ng/mL, 6.61 ng/mL and 1.19 nM, respectively. For the same molecule, the cross-competition score in experiment [9] is 4.92%; in [5] it was 101%; in experiment [6], 4.98%; in experiment [7], 56.8%. The dissociation constant (Kd) in [4] turned out to be 0.0473 nM; in experiment [10], 0.0684 nM. The koff amounted to 0.000187 s⁻¹ in experiment [4] and 0.000375 s⁻¹ in experiment [10]. Further, the values for the kon in experiment [4] and in experiment [10] were 3.95e+06 M⁻¹ s⁻¹ and 5.49e+06 M⁻¹ s⁻¹, respectively.

B3: 124B11F6 chimeric antibody (antibody, human IgG1, V domains shown)
VH: EVQLQQSGAELVRPGASVKLSCTASVFNIKDYYMHWVKQRTEQGLEWIGRIDPEDDKTKYAPKFQGKATITADTSSNTAYLHLSTLTSEDTAVYYCVRGWLGYIMDFWGQGTSVTVSS
VL: QLVLTQSSSASFSLGASAKLTCTLSSQHSTYTIDWYQQQPLKPPKYVMELKEDGSHSTGDGIPDRFSGSSSGADRYLGISNIQPEDEAVYICGVGATIKEQFVYVFGGGTKVTVL
notes: also called 124B11F6-mHL
Regarding B3, the EC50 amounted to 21.6 ng/mL in [1], 21.2 ng/mL in [11], 16 ng/mL in experiment [2] and 9.44 nM in experiment [8]. In addition, the cross-competition score in [3] was found to be 108%; in experiment [9] it was 22.7%; in experiment [6] it was 79.5%; in experiment [7] it was 44.9%. Also, the dissociation constant Kd is 0.00143 nM in experiment [4] and 0.0834 nM in experiment [10]. The koff in experiment [4] came out at 1.46e-07 s⁻¹; in [10], 0.000114 s⁻¹. Moreover, the figures for the on-rate (kon) in [4] and in experiment [10] were 102000 M⁻¹ s⁻¹ and 1.37e+06 M⁻¹ s⁻¹, respectively.

B4: 174C11C9 chimeric antibody (antibody, human IgG1, V domains shown)
VH: EVQLQQSGPVLVKPGASVKMSCEASGYIFTDYYMNWVKQSPGKSLEWIGVFNPYSGGISYNQKFKGKATLTVDTSSSTAYMELNSLTSEDSAVYYCARDYYYLSSHGFYALDYWGQGTSVTVSS
VL: DIVLTQSPASLAVSLGQRATISCRASESVDSYGNSFIHWYQQRPGRPPKLLMYRASNLESGIPARFSGSGSRTDFTLTIDPVEADDVATYYCQQSNEDPLTFGAGTKLELK
notes: also called 174C11C9-mHL
As for B4, the concentration giving a half-maximal response (EC50) in [1] was found to be 5.22 ng/mL; in experiment [11], 9.85 ng/mL; in experiment [2], 7.48 ng/mL; in [8] it was 1.59 nM. Moreover, the cross-competition score in [3] amounted to 7.68%; in [9] it was 4.2%; in [5], 73.4%; in experiment [7], 52.4%. The Kd was determined as 0.305 nM in [4] and 0.175 nM in experiment [10]. The figures for the koff in [4] and in experiment [10] were 0.00037 s⁻¹ and 0.000305 s⁻¹, respectively. For the same molecule, the on-rate (kon) turned out to be 1.21e+06 M⁻¹ s⁻¹ in experiment [4] and 1.74e+06 M⁻¹ s⁻¹ in experiment [10].

B5: 255C12B10 chimeric antibody (antibody, V domains shown)
VH: EVQLQQSGPELVKPGASVKMSCKASGYTFTGYNMNWVKQSHGKSLEWIGYINPNNGGTRYNQKFKGKATLTINKSSSTAYMELRSLTSEDSAVYYCARDYGIDYWGQGTTLTVSS
VL: EIQMTQSPSSMSASLGDRITITCQATQDIVKNLNWYQQKPGKPPSFLIYYATELAEGVPSRFSGSGSGSDYSLTISNLESEDFADYYCLQFYEFPYTFGGGTKLEIK
notes: as for B1
Turning to B5, the EC50 in experiment [1] was determined as 5.62 ng/mL; in [11], 22.8 ng/mL; in [2], 5.46 ng/mL; in experiment [8] it was 3.77 nM. For the same molecule, the cross-competition score in experiment [3] came to 20.4%; in experiment [9], 11.4%; in experiment [5], 18.9%; in experiment [6], 18.3%. Also, in [4], the equilibrium dissociation constant (Kd) was determined as 0.536 nM. In [4], this molecule yielded a koff of 0.000158 s⁻¹. Also, the kon in experiment [4] came out at 296000 M⁻¹ s⁻¹.
